T1: human DLL3 (Delta-like ligand 3) (human, UniProt Q9NYJ7 27-618)
T1 construct: endogenous on SHP-77 cells; also called cell-surface DLL3
T1 sequence: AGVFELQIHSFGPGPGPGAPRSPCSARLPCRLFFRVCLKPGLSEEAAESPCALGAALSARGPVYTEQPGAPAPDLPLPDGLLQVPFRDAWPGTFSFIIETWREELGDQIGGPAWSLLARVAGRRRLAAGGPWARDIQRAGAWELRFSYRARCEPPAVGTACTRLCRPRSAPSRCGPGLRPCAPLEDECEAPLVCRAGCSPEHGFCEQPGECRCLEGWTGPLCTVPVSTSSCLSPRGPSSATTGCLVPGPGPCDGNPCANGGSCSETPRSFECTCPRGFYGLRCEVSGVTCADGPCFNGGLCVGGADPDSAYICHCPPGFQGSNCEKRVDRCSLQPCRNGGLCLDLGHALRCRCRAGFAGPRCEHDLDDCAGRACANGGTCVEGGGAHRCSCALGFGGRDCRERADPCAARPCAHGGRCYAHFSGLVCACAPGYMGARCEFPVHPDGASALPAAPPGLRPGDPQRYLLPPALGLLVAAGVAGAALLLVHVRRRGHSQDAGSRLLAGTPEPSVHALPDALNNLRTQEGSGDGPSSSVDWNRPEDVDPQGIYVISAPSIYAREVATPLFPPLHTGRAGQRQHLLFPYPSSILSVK


Biological target: T1, human DLL3 (Delta-like ligand 3)
Experiment: flow cytometry, sdAb-Fc titrated on SHP-77 cells (DLL3 positive), APC anti-human Fc secondary
Experimental: FIGS. 2A-L set forth a series of graphs depicting the ability of sdAb and humanized variants thereof targeting DLL3 to bind cell surface DLL3.
Specificity and relative affinity were assessed for purified sdAb-Fcs on DLL3-expressing cells. […] A titration series of the fusion protein was incubated with the DLL3-expressing cell lines (approximately 2.5×10⁴ to 5×10⁴ cells/well) for 30 minutes at 4 degrees Celsius in FACS Buffer (PBS 1% BSA, 0.1% NaN₃ pH 7.4) in 96-well plates. Following three wash steps in FACS buffer, an APC-conjugated anti-human Fcγ specific secondary antibody (Jackson ImmunoResearch) was added and incubated for 30 minutes at 4 degrees Celsius. Following three additional wash steps in FACS buffer bound antibody was detected via flow cytometry (IQue Intellicyte).

Row | Binder | binding result | EC50 (read off the curve)
1 | L3G3 (Fc fusion, tested as VHH-human Fc; Fc not specified) VHH: QVQLVQSGGGLVQAGGSLRLSCAASGSIFSINAMGWYREAPGKQRELVAGFTGDGMTKYAESVKGRFTFSRDNAKNTVYLQMNSLKPEDTGVYYCAADVFTDRDHVDWYWGQGTQVTVKP | binds | –
2 | hz3G3v3 (Fc fusion, tested as VHH-human Fc; Fc not specified) VHH: EVQLVESGGGEVQPGGSLRLSCAASGSIFSINAMGWYRQAPGKQRELVAGFTGDGMTKYAESVKGRFTFSRDNAKNTVYLQMSSLRAEDTAVYYCAADVFTDRDHVDWYWGQGTLVTVKP | binds | –
3 | hz3G3v2 (Fc fusion, tested as VHH-human Fc; Fc not specified) VHH: EVQLVESGGGEVQPGGSLRLSCAASGSIFSINAMGWYREAPGKQRELVAGFTGDGMTKYAESVKGRFTISRDNAKNTVYLQMSSLRAEDTAVYYCAADVFTDRDHVDWYWGQGTLVTVKP | binds | –
4 | hz3G3v4 (Fc fusion, tested as VHH-human Fc; Fc not specified) VHH: EVQLVESGGGEVQPGGSLRLSCAASGSIFSINAMGWYRQAPGKQRELVAGFTGDGMTKYAESVKGRFTISRDNAKNTVYLQMSSLRAEDTGVYYCAADVFTDRDHVDWYWGQGTLVTVKP | binds | –
5 | hz5A7v1 (Fc fusion, tested as VHH-human Fc; Fc not specified) VHH: EVQLVESGGGEVQPGGSLRLSCAASGSDFSINAIGWYRQAPGKQRDMVAGFTGDGVTTYAESVKGRFTISRDNAKNTVYLQMSSLRAEDTAVYYCAADVKIGGDYEWFWGQGTLVTVKP | binds | –
6 | hz5A7v6 (Fc fusion, tested as VHH-human Fc; Fc not specified) VHH: EVQLVESGGGEVQPGGSLRLSCAASGSDFSINAIGWYRQPPGKQRDMVAGFTGDGVTTYAESVKGRFTISRDNAKNTVYLQMSSLRAEDTAVYYCAADVKIGGDYEWFWGQGTLVTVKP | binds | –
7 | hz5A7v4 (Fc fusion, tested as VHH-human Fc; Fc not specified) VHH: EVQLVESGGGEVQPGGSLRLSCAASGSDFSINAIGWYRQAPGKQRDLVAGFTGDGVTTYAESVKGRFTISRDNAKNTVYLQMSSLRAEDTAVYYCAADVKIGGDYEWFWGQGTLVTVKP | binds | –
8 | L5A7 (Fc fusion, tested as VHH-human Fc; Fc not specified) VHH: EVQLVQSGGGLVQPGGSLRLSCAASGSDFSINAIGWYRQAPGKQRDMVAGFTGDGVTTYADSVKGRFTISRDNAKNTVYLQMNSLKPEDTAVYYCAADVKIGGDYEWFWGQGTQVTVKP | binds | –
9 | hz5A7v5 (Fc fusion, tested as VHH-human Fc; Fc not specified) VHH: EVQLVESGGGEVQPGGSLRLSCAASGSDFSINAIGWYRQAPGKQRDWVAGFTGDGVTTYAESVKGRFTISRDNAKNTVYLQMSSLRAEDTAVYYCAADVKIGGDYEWFWGQGTLVTVKP | binds | –
10 | hz5A7v3 (Fc fusion, tested as VHH-human Fc; Fc not specified) VHH: EVQLVESGGGEVQPGGSLRLSCAASGSDFSINAIGWYRQAPGKQRDMVAGFTGEGVTTYAESVKGRFTISRDNAKNTVYLQMSSLRAEDTAVYYCAADVKIGGDYEWFWGQGTLVTVKP | binds | –
11 | hz5A7v2 (Fc fusion, tested as VHH-human Fc; Fc not specified) VHH: EVQLVESGGGEVQPGGSLRLSCAASGSDFSINAIGWYRQAPGKQRDMVAGFTGDTVTTYAESVKGRFTISRDNAKNTVYLQMSSLRAEDTAVYYCAADVKIGGDYEWFWGQGTLVTVKP | binds | –
12 | hz10D9v7 (Fc fusion, tested as VHH-human Fc; Fc not specified) VHH: EVQLVESGGGEVQPGGSLRLSCAASGSIFSINAMGWYRQAPGKQRELVAGFTGDTNTIYAESVKGRFTISRDNAKNTVYLQMSSLRAEDTAVYYCAADVQLFSRDYEFYWGQGTLVTVKP | binds | –
13 | hz10D9v2 (Fc fusion, tested as VHH-human Fc; Fc not specified) VHH: EVQLVESGGGEVQPGGSLRLSCAASGSILSINAMGWYRQAPGKQRELVAGFTGDGNTIYAESVKGRFTISRDNAKNTVYLQMSSLRAEDTAVYYCAADVQLFSRDYEFYWGQGTLVTVKP | binds | –
14 | hz10D9v6 (Fc fusion, tested as VHH-human Fc; Fc not specified) VHH: EVQLVESGGGEVQPGGSLRLSCAASGSILSINAMGWYRQPPGKQRELVAGFTGDTNTIYAESVKGRFTISRDNAKNTVYLQMSSLRAEDTAVYYCAADVQLFSRDYEFYWGQGTLVTVKP | binds | –
15 | hz3C5v7 (Fc fusion, tested as VHH-human Fc; Fc not specified) VHH: EVQLVESGGGEVQPGGSLRLSCAASGSIFSINAMGWYRQAPGKQRELVAGFTGDGSTKYAESVKGRFTISRDNAKNTVYLQMSSLRAEDTAVYYCAADVQLLQSDYEFYWGQGTLVTVKP | binds | –
16 | hz3C5v5 (Fc fusion, tested as VHH-human Fc; Fc not specified) VHH: EVQLVESGGGEVQPGGSLRLSCAASGSIFSINAMGWYRQAPGKQRELVAGFTGDGSTKYAESVKGRFTISRDNAKNTVYLQMSSLRAEDTAVYYCAADVQLLSSDYEFYWGQGTLVTVKP | binds | –

Now from value to binder:

Row | binding result | EC50 (read off the curve) | Binder
17 | binds | – | hz3C5v4 (Fc fusion, tested as VHH-human Fc; Fc not specified) VHH: EVQLVESGGGEVQPGGSLRLSCAASGSIFSINAMGWYRQAPGKQRELVAGFTGEGSTKYAESVKGRFTISRDNAKNTVYLQMSSLRAEDTAVYYCAADVQLLNSDYEFYWGQGTLVTVKP
18 | binds | – | hz3G3v1 (Fc fusion, tested as VHH-human Fc; Fc not specified) VHH: EVQLVESGGGEVQPGGSLRLSCAASGSIFSINAMGWYRQAPGKQRELVAGFTGDGMTKYAESVKGRFTISRDNAKNTVYLQMSSLRAEDTAVYYCAADVFTDRDHVDWYWGQGTLVTVKP
19 | binds | – | hz3C5v3 (Fc fusion, tested as VHH-human Fc; Fc not specified) VHH: EVQLVESGGGEVQPGGSLRLSCAASGSIFSINAMGWYRQAPGKQRELVAGFTGDTSTKYAESVKGRFTISRDNAKNTVYLQMSSLRAEDTAVYYCAADVQLLNSDYEFYWGQGTLVTVKP
20 | – | ~0.7 nM | hz3C5v2 (Fc fusion, tested as VHH-human Fc; Fc not specified) VHH: EVQLVESGGGEVQPGGSLRLSCAASGSIFSINAMGWYRQPPGKQRELVAGFTGDGSTKYAESVKGRFTISRDNAKNTVYLQMSSLRAEDTAVYYCAADVQLLNSDYEFYWGQGTLVTVKP
21 | binds | – | hz10D9v5 (Fc fusion, tested as VHH-human Fc; Fc not specified) VHH: EVQLVESGGGEVQPGGSLRLSCAASGSILSINAMGWYRQAPGKQRELVAGFTGDTNTIYAESVKGRFTISRDNAKNTVYLQMSSLRAEDTAVYYCAADVQLFSRDYEFYWGQGTLVTVKP
22 | binds | – | hz10D9v1 (Fc fusion, tested as VHH-human Fc; Fc not specified) VHH: EVQLVESGGGEVQPGGSLRLSCAASGSILSINAMGWYRQAPGKQREMVAGFTGDGNTIYAESVKGRFTISRDNAKNTVYLQMSSLRAEDTAVYYCAADVQLFSRDYEFYWGQGTLVTVKP
23 | binds | – | hz3C5v6 (Fc fusion, tested as VHH-human Fc; Fc not specified) VHH: EVQLVESGGGEVQPGGSLRLSCAASGSIFSINAMGWYRQAPGKQRELVAGFTGDGSTKYAESVKGRFTISRDNAKNTVYLQMSSLRAEDTAVYYCAADVQLLTSDYEFYWGQGTLVTVKP
24 | binds | – | hz3C5v8 (Fc fusion, tested as VHH-human Fc; Fc not specified) VHH: EVQLVESGGGEVQPGGSLRLSCAASGSIFSINAMGWYRQAPGKQRELVAGFTGDGSTKYAESVKGRFTISRDNAKNTVYLQMSSLRAEDTAVYYCAADVQLLNTDYEFYWGQGTLVTVKP
25 | binds | – | hz10D9v3 (Fc fusion, tested as VHH-human Fc; Fc not specified) VHH: EVQLVESGGGEVQPGGSLRLSCAASGSILSINAMGWYRQAPGKQREMVAGFTGEGNTIYAESVKGRFTISRDNAKNTVYLQMSSLRAEDTAVYYCAADVQLFSRDYEFYWGQGTLVTVKP
26 | binds | – | hz10D9v4 (Fc fusion, tested as VHH-human Fc; Fc not specified) VHH: EVQLVESGGGEVQPGGSLRLSCAASGSILSINAMGWYRQAPGKQREMVAGFTGDTNTIYAESVKGRFTISRDNAKNTVYLQMSSLRAEDTAVYYCAADVQLFSRDYEFYWGQGTLVTVKP
27 | binds | – | hz3C5v1 (Fc fusion, tested as VHH-human Fc; Fc not specified) VHH: EVQLVESGGGEVQPGGSLRLSCAASGSIFSINAMGWYRQAPGKQRELVAGFTGDGSTKYAESVKGRFTISRDNAKNTVYLQMSSLRAEDTAVYYCAADVQLLNSDYEFYWGQGTLVTVKP
28 | – | ~2 nM | hz6C5v1 (Fc fusion, tested as VHH-human Fc; Fc not specified) VHH: EVQLVESGGGEVQPGGSLRLSCAASEITFSDKTVGWYRQAPGKQRVLVAVISNVDSTNYAESVKGRFTISRDNAKNTLYLQMSSLRAEDTAVYYCHARDFENEYWGQGTLVTVKP
29 | binds | – | 3C5 (Fc fusion, tested as VHH-human Fc; Fc not specified) VHH: QVQLVQSGGGLVQAGGSLRLSCAASGSIFSINAMGWYRQPPGKQRELVAGFTGDGSTKYADSVKGRFTISRDNAKNTVYLQMNSLKPEDTAVYYCAADVQLLNSDYEFYWGQGTQVTVKP
